Measurements taken from article PMC2954335.

Biological target: ecCTLA-4 (Escherichia coli-expressed monomeric form of CTLA-4, extracellular region vl-Ig 1-124, cysteine 122 mutated to serine) (UniProt P16410)
Experiment: SEC; monomeric ecCTLA-4 concentrated to 10 mg/ml, incubated 24 h at room temperature, then analytical size-exclusion chromatography with calibration curve; monomer to strand-swapped dimer and larger species

With “ecCTLA-4 (Escherichia coli-expressed monomeric form of CTLA-4, extracellular region vl-Ig 1-124, cysteine 122 mutated to serine) (from UniProt P16410 36-159) (domain or fragment)” the stoichiometry N was > 2.
